Sequences and labels used below:
B1: LINE1-full (parent)
chain: UACGUAGGUGGUUUUCCCCUGAUAGUGCUAAGGGGGCCUGGAAGUUUGGACUGGGCAGAGCUCAACACAGCGUGGCAAAGUGGCUGUGGCUAGACUGCCUCUCUGGAUUCCUCGUCACUCAGCAGGGCAUCUCUGAGAGAAAUGCC

Variants of B1 are the subject of the data set. The data set can be described thus: self-cleavage, relative activity (ratio to wild type); higher = more cleavage; in vitro, sequencing; the parent is a self-cleaving ribozyme.
For C99U U134A, the self-cleavage is 0.37. To A94U A138G belongs 0.32. A94U G144A: the self-cleavage came out at 0.4. For U100C A138U, the self-cleavage is 1.51. For the variant U96G A141G, the self-cleavage amounted to 0. Consider A92U A140G, for which the self-cleavage came to 0.53.

Consider A92U C146G, for which the self-cleavage turned out to be 0.41. Consider A94U U112A, for which the self-cleavage is 0.31. Turning to A94U U112C, the self-cleavage is 0.37. As for U96C C146U, the self-cleavage amounted to 0.15.

As for U96C C146A, the self-cleavage was 0.25. Under U100C A141U stands 1.08; under U96A U109A, 0.05.

In the case of U96A U108C, the self-cleavage turned out to be 0.08. Under C99A A129U stands 0.46; under A94U U109C, 0.22. For the variant A94C U130C, the self-cleavage came out at 0.09. Regarding A94G A140U, the self-cleavage was 0.33. As to A92G U132A, the self-cleavage is 0.05. Under C95U U104A stands 0.1; under A92G U104C, 0.05; under U96A A136G, 0.09. On to U96A A136U, for which the self-cleavage was found to be 0.09. To U96C U100C belongs 0.38; to U96C U100A, 0.08; to C99U A107G, 0.83. For A92U A94U, the self-cleavage turned out to be 0.32. Consider U100A U143C, for which the self-cleavage turned out to be 0.86. To U100A U143A belongs 0.91.

On to G97A U100A, for which the self-cleavage turned out to be 0.1. Regarding G97A U100C, the self-cleavage was found to be 0.33. With U96A C118A, the self-cleavage was determined as 0.02. As to C99G A129G, the self-cleavage is 0.3. C98A U112C: the self-cleavage is 0.05.

Consider C99U U143A, for which the self-cleavage amounted to 0.39. To C95U C118A belongs 0.13; to A94G G125C, 0.57; to G97A U134G, 0.06. Take A92U A142G: the self-cleavage was 0.66.

For U96C A142G, the self-cleavage stood at 0.13. Take U96C A142U: the self-cleavage was determined as 0.12.

For the variant A94G A129G, the self-cleavage worked out at 0.11. In the case of U96C C113G, the self-cleavage amounted to 0.11.

In the case of U96C C113U, the self-cleavage turned out to be 0.05.

In the case of U96C C113A, the self-cleavage turned out to be 0.05. For U96A U132C, the self-cleavage turned out to be 0.12. U100A C116U: the self-cleavage worked out at 0.4. On to C95A A121U, for which the self-cleavage turned out to be 0.05. For the variant U100C A140U, the self-cleavage is 1.82.

Consider U100C A140G, for which the self-cleavage turned out to be 1.79. Consider A94C A136G, for which the self-cleavage is 0.07. As for C95A A142G, the self-cleavage came out at 0.08. Consider A94C U119C, for which the self-cleavage is 0.1. In the case of C98U U134C, the self-cleavage came to 0.3. Consider C99A U119C, for which the self-cleavage is 0.82. Take U100C C128U: the self-cleavage turned out to be 1.58. To G93A G105U belongs 0.02; to A92G C98A, 0.08.

Regarding A92U G105A, the self-cleavage amounted to 0.77.

Take A94G A124G: the self-cleavage was determined as 0.06. Regarding A94U C116U, the self-cleavage is 0.33. With U96C U104C, the self-cleavage is 0.13. Turning to G97U G127A, the self-cleavage is 0.04.

As for U96A G97A, the self-cleavage came out at 0.09.

In the case of A92U A136G, the self-cleavage turned out to be 0.94. With A92U U130C, the self-cleavage worked out at 0.73. For the variant A92U U130G, the self-cleavage is 1.61. Take A94U U134G: the self-cleavage was 0.2.

On to A94U U134A, for which the self-cleavage was determined as 0.25. For the variant A94U U134C, the self-cleavage came out at 0.32. For C98U A141G, the self-cleavage is 0.45. With A94G G127U, the self-cleavage came out at 0.09. Turning to C98A C101U, the self-cleavage worked out at 0.09. Regarding C98U A136G, the self-cleavage is 0.55.

As for C99A U108C, the self-cleavage amounted to 1.2. Turning to C95A U108C, the self-cleavage was found to be 0.

As for A94U U130A, the self-cleavage amounted to 0.23. On to U96C A129G, for which the self-cleavage was found to be 0.11. Under U96C A129U stands 0.1. As to A94G U134A, the self-cleavage came to 0.21. Under A94G U134C stands 0.44.

On to A92U U112C, for which the self-cleavage amounted to 0.48. As for G97U C145U, the self-cleavage stood at 0.04.

Regarding G93U A142U, the self-cleavage was determined as 0.04. As for U96A G139C, the self-cleavage turned out to be 0.04. With U100A G137A, the self-cleavage is 0.85. In the case of A94C, the self-cleavage is 0.06. In the case of A94G, the self-cleavage was 0.31. To A94U belongs 0.29. To G97A belongs 0.11; to G97U, 0.06; to G97C, 0.19. As for U100C, the self-cleavage came to 1.79. Regarding U100A, the self-cleavage is 0.9. With C98A A141G, the self-cleavage amounted to 0.17. Consider C95U A121G, for which the self-cleavage stood at 0.33. Take A94C A140G: the self-cleavage turned out to be 0.04. Regarding A94G U104A, the self-cleavage was 0.22. In the case of A94G U100A, the self-cleavage is 0.21. As to A94G U100C, the self-cleavage amounted to 0.44. A92U U143A: the self-cleavage is 0.6. For A92U U143C, the self-cleavage came out at 0.99. As to U100C A142G, the self-cleavage is 1.93. Regarding U96C U115G, the self-cleavage is 0.21. U96C U115C: the self-cleavage stood at 0.32. Consider U96C U115A, for which the self-cleavage was 0.13.

Take U96A G126A: the self-cleavage was found to be 0.07. U96A U104C: the self-cleavage was 0.07.

Consider U96A U104A, for which the self-cleavage was 0.07. Under A94U C131U stands 0.29; under A92G C120U, 0.07. With C98A A140G, the self-cleavage amounted to 0.12.

As to C95U U130C, the self-cleavage was 0.21. As to U96A G127A, the self-cleavage is 0.06. For G97U C123U, the self-cleavage stood at 0.03.

With A92U U100C, the self-cleavage turned out to be 0.9.

For U96A U130A, the self-cleavage was determined as 0.05. Turning to U96A U130C, the self-cleavage came out at 0.06. As to U100A A136C, the self-cleavage is 1.05. Consider U96A G137A, for which the self-cleavage came to 0.12. To U100A C133U belongs 0.54; to C98U A138G, 1.15.

As for C98U U100G, the self-cleavage amounted to 0.05. Consider U96G U109A, for which the self-cleavage was 0. Under C95U U115C stands 0.54. On to A94G A117G, for which the self-cleavage was found to be 0.36.

On to A94G A117C, for which the self-cleavage was found to be 0.26.

Regarding A94U U104C, the self-cleavage was found to be 0.55. To A94U U104A belongs 0.19; to C98U A142U, 0.47. U96A U112A: the self-cleavage worked out at 0.06. On to A92U U108C, for which the self-cleavage stood at 1.2.

In the case of G93U U96C, the self-cleavage came out at 0.06. Take A94U U132C: the self-cleavage worked out at 0.52. For the variant U96C A107G, the self-cleavage was 0.14. Regarding G97A A140G, the self-cleavage came to 0.11. For the variant G97A U132C, the self-cleavage stood at 0.11.

As to U100C A136U, the self-cleavage was 1.73. To U100C A136G belongs 1.91; to U96C U134G, 0.11.

As to C99A U109C, the self-cleavage was 0.41. Under U96G A136G stands 0.13; under U100A U119C, 1.23. In the case of G93U U102A, the self-cleavage worked out at 0.02. Take C99U A142G: the self-cleavage is 0.58. Turning to U96C A141G, the self-cleavage was 0.18. Under A94U A107U stands 0.32; under A94U U100C, 0.33. As for A92U A107G, the self-cleavage came out at 0.94.

Regarding U96C A121U, the self-cleavage turned out to be 0.13. As for C99U A141C, the self-cleavage is 0.55. Consider C99U A141G, for which the self-cleavage came to 0.62. On to A94C A124G, for which the self-cleavage stood at 0.02.

With A94C A124U, the self-cleavage is 0.

A92G U143C: the self-cleavage stood at 0.36.

As to U100C A107G, the self-cleavage amounted to 1.73.

For the variant U100C A107U, the self-cleavage was found to be 1.21. Regarding U100A U108G, the self-cleavage was found to be 0.

U100A G125A: the self-cleavage is 1.05. Consider A92U A124G, for which the self-cleavage was found to be 0.5. As for U96A A140G, the self-cleavage is 0.06. U96A A140U: the self-cleavage is 0. On to U100A C103U, for which the self-cleavage turned out to be 0.44. Turning to A92G U115A, the self-cleavage came to 0.12. In the case of C98U U108C, the self-cleavage came out at 0.48. Under A92G U96A stands 0.13; under G93A A107G, 0.06.

The values above are taken from the RNAGym collection of RNA variant scans (doi:10.7554/elife.90254).
